# Measurements reported in US20110268740A1.
# B1: scFv-E040-msFcγ2c (Fc fusion)
# chain: DADPAQAAELVMTQSPDSLAVSLGERATINCKSSQSVLYSSNNENYLAWYQQKPGQPPKLLIYWASTRESGVPDRFSGSGSGTDFTLTINSVQAEDVAVYYCQQYFMTPITFGQGTRLEIKGGSSRSSSSGGGGSGGGGEVQLLESGGALVQPGRSLRLSCRTSGLNFGDYPINWVRQAPGKGLEWVGFIKSKSYGVTTEFAASVEGRFTISRDDSRGIAYLQMNSLKTEDTAVYYCTSSSGFLYYFDYWGQGTLVTVSSASTKGPSVTSGQAGRKLEPRVPITQNPCPPLKECPPCAAPDLLGGPSVFIFPPKIKDVLMISLSPMVTCVVVDVSEDDPDVQISWFVNNVEVHTAQTQTHREDYNSTLRVVSALPIQHQDWMSGKEFKCKVNNRALPSPIEKTISKPRGPVRAPQVYVLPPPAEEMTKKEFSLTCMITGFLPAEIAVDWTSNGRTEQNYKNTATVLDSDGSYFMYSKLRVQKSTWERGSLFACSVVHEGLHNHLTTKTISRSLGK
# B2: M2e consensus peptide (free, soluble) (peptide)
# peptide: SLLTEVETPIRNEWGCRCNDSSD
# modifications: not checked
# B3: M2e-short (peptide)
# peptide: SLLTEVETPIRNEWGC
# modifications: not checked
# Legend:
# [1] = target: M2e consensus peptide (free, soluble) (Influenza A virus (consensus of H1, H2 and H3 subtypes of human Influenza A viruses)); assay: Friguet ELISA, free M2e peptide in solution
# [2] = target: M2e-short (Influenza A virus (consensus)); assay: ELISA, apparent affinity, purified scFv-msFcγ2c on immobilised M2e-short
Binder,Kd [1] [nM],EC50 [2] [nM],EC50 (scFv-E040-msFcγ2c) [µM]
B1,4,0.0902,
B2,,,21.3
B3,,,35.5
